Results as given in publication PMC2913173 (Journal of molecular biology, 2009).
eCPX = enhanced circularly permuted OmpX display protein

Molecular target: Bcl-xL (Homo sapiens, UniProt Q07817, DEL46-85)
Experiment: Cell surface display equilibrium binding assay with flow cytometry
Conditions: cells displaying Bak–eCPX fusions, biotinylated Bcl-xL and SAPE

Molecule	Binding to Bcl-xL in words (fluorescence of cell population)
Bak(24–89): eCPX fusion protein comprising helices α1, α2, and α3 of Bak (protein) EEQVAQDTEEVFRSYVFYRHQQEQEAEGVAAPADPEMVTLPLQPSSTMGQVGRQLAIIGDDINRRY-eCPX	fluorescence only slightly above background levels
Bak(24–117): construct containing amino acids 24–117 of Bak (helices α1 to α4), eCPX fusion (protein, left off: eCPX (enhanced circularly permuted OmpX display protein), C-terminal, kept) EEQVAQDTEEVFRSYVFYRHQQEQEAEGVAAPADPEMVTLPLQPSSTMGQVGRQLAIIGDDINRRYDSEFQTMLQHLQPTAENAYEYFTKIATS	essentially no binding to Bcl-xL
